Results taken from publication PMC9545174, “Discovery and characterization of SARS-CoV-2 reactive and neutralizing antibodies from humanized CAMouse^HG mice through rapid hybridoma screening and high-throughput single-cell V(D)J sequencing” (Frontiers in Immunology, 2022).
Residue numbers refer to the chain shown, from its start.

Experiments:
[1] = target: T1, wildtype SARS-CoV-2 RBD Protein (Severe acute respiratory syndrome …, UniProt P0DTC2); test: SPR; settings: both partners purified
[2] = target: T1, wildtype SARS-CoV-2 RBD Protein; test: BLI; settings: both partners purified

B1: 11-2G (antibody, V domains shown)
VH: QVQLQQAGPGLVKPSQTLSLTCAISGDSVSNNSAIWNWIRQSPSRGLEWLGRTYYRSKWYNDYAVSVSSRITINPDTSKNQFSLQLNSVTPEDTAVYYCARVDILTGYSFDYWGQGTLVTVSS
VL: EIVLTQSPGTLSLSPGERATLSCRASQSVSSSFLAWYQQKPGQAPRFLIYGESYRATGIPDRFSGSGSGTDFTLTISRLEPEDFAVYYCQQYGSSLTFGGGTKVEIK
Kd [1]: 0.451 nM

B2: 18-4A (antibody, V domains shown)
VH: QVQLQQSGPGLVKPSQTLSLTCAISGDSVSNNSAAWNWIRQSPSRGLEWLGRTYYRSKWYNDYAVSVSSRITINPDTSKNQFSLQLNSVTPEDTAVYYCAREGALLWFGEGAFDYWGQGTLVTVSS
VL: EIVLTQSPGTLSLSPGERATLSCRASHIVSSSYLAWYQQKPGQAPRFLIYGASSRATGIPDRFSGSGSGTDFTLTISRLEPEDFAVYYCQQYAGSPFTFGPGTKVDIK
Kd [1]: 0.234 nM

B3: 15-11F (antibody, V domains shown)
VH: QVQLQQSGPGLVKPSQTLSLTCAISGDSVSNNSAAWNWIRQSPSRGLEWLGRTYYRSKWYNDYAVSVSSRITINPDTSKNQFSLQLNSVTPEDTAVYYCARFSRLLGYGMDVWGQGTTVTVS
VL: B1 VL with S30I, F33Y, A35S, E52A, S53A, Y54S
binding result [2]: binds

B4: 4-1B (antibody, V domains shown)
VH: QVQLQQSGPGLVKPSQTLSLTCAISGDSVSNNSAAWNWIRQSPSRGLEWLGRTYYRSKWYNDYAVSVSSRITINPDTSKNQFSLQLNSVTPEDTAVYYCARGVYGSGPHAFDIWGQGTMVTVSS
VL: B1 VL with G51V, E52T, Y54N
binding result [2]: binds

B5: 4-2D (antibody, V domains shown)
VH: QVQLQQSGPGLVKPSQTLSLTCAISGDSVSNNSAAWNWIRQSPSRGLEWLGRTYYRSKWYNDYAVSVSSRITINPDTSKNQFSLQLNSVTPEDTAVYYCARGLWIPYYYGMDVWGQGTTVTVS
VL: B1 VL with S31N, S32I, Y54S, G100P, E105D
binding result [2]: binds
